{
  "source": "patent US6558660B2",
  "about": "“Method for regulating IL-10 with IL-9, and applications thereof” (Ludwig Institute for Cancer Research, priority 2000, dated 2003)",
  "key": {"[1]": {"test_system": "P. aeruginosa (serotype 10)", "settings": "cited from earlier work"}, "[2]": {"test_system": "TNF-α, IL-12 p40, and IFN-γ", "assay": "serum levels of TNF-α, IL-12 p40 and IFN-γ after challenge (bioassay / immunoassay)", "type": "in vivo, mice", "settings": "IL-9 24 and 1 hour prior to challenge (P. aeruginosa or LPS); 2, 4 and 6 hours after challenge", "description": "(§1) It has been observed, previously, that there is a strong association between development of fatal septic shock and production of TNF-α. See, e.g., the Campanile papers, cited supra. In addition, IL-12 and IFN-γ are pro-inflammatory cytokines thought to have a pathogenetic role in both septic shock and endotoxemia. See D'Andrea, et al, J. Exp. Med. 178:1041 (1993). Murphy, et al, J. Exp. Med. 180:223 (1994); Kubin, et al, J. Exp. Med. 180:211 (1994). In view of the results secured in examples 1 & 2, studies were undertaken to measure serum levels of TNF-α, IL-12 p40, and IFN-γ, in subject animals challenged with P. aeruginosa in the manner described supra, or lipopolysaccharide antigen (“LPS” hereafter), that were also treated with IL-9.\n(§2) In these experiments, mice were injected, intraperitoneally, with 850 μg of LPS, which had been determined previously to constitute an LD90. All animals received doses of IL-9 as described supra, 24 and 1 hour prior to challenge. Sera were analyzed 2, 4, 6, 8, and 24 hours following challenge, using either a standard bioassay for TNF-α (cytotoxicity to TNF-α sensitive WEH1 164 cells), or via an immunossay (IL-12p40 and IFN-γ)."}, "[3]": {"assay": "LPS challenge (LD90), survival", "type": "in vivo, mice", "settings": "850 μg LPS i.p.; IL-9 24 and 1 hour prior to challenge", "experimental": "as §2"}, "TNF-α [4]": {"test_system": "TNF-α", "assay": "serum TNF-α bioassay (cytotoxicity to WEH1 164 cells) after P. aeruginosa challenge", "type": "in vivo", "settings": "P. aeruginosa treated mice; IL-9 24 and 1 hour prior to challenge", "description": "as §1, §2"}, "IL-10 [5]": {"test_system": "IL-10", "assay": "serum IL-10 by ELISA after P. aeruginosa challenge", "type": "in vivo, mice", "settings": "2 hours following Pseudomonas infection; IL-9 24 and 1 hour prior to challenge", "experimental": "(§3) In view of the observations of Giampetri, et al, supra, serum levels of the anti-inflammatory cytokines IL-4 and IL- 10 were measured in the sera of mice that had been challenged, either with the whole bacteria or with LPS, as described supra, and had received IL-9 24 and 1 hour prior to challenge, as described supra. Levels were measured via ELISAs, 2, 4, 6, 8, and 24 hours after challenge."}, "IL-4": {"test_system": "IL-4", "assay": "serum IL-4 by ELISA after challenge", "type": "in vivo, mice", "settings": "IL-9 24 and 1 hour prior to challenge with bacteria or LPS; 2-24 hours after challenge", "experimental": "as §3"}, "IL-10 [6]": {"test_system": "IL-10", "assay": "serum IL-10 by ELISA after LPS challenge", "type": "in vivo", "settings": "LPS challenged mice; IL-9 24 and 1 hour prior to challenge", "experimental": "as §3"}, "TNF-α [7]": {"test_system": "TNF-α", "assay": "serum TNF-α bioassay (cytotoxicity to WEH1 164 cells) after LPS challenge", "type": "in vivo, mice", "settings": "LPS challenged animals (850 μg i.p.); IL-9 24 and 1 hour prior to challenge", "description": "as §1, §2"}, "IL-10 [8]": {"test_system": "IL-10", "assay": "PCR of IL-10 transcripts in spleen cells of challenged mice", "type": "in vivo", "settings": "after infection, animals which had received IL-9; control mice hardly detectable", "experimental": "The experiments described herein report analyses of expression of IL-10. Specifically, total RNA was isolated from spleen cells of challenged mice at different points in time (0.5, 1, 2, 4, and 8 hours). Isolation was carried out in accordance with Campanile, et al, Eur. J. Pharmacol. 307:191 (1996), and Houssiau, et al, J. Immunol. 154:2624 (1995), incorporated by reference. These references also describe the PCR protocols used for amplifying transcripts of β-actin (control), and IL-10. Commercially available primers were used to amplify β actin, and the 5′ and 3′ primers for IL-10 were, respectively: […]\nThe amplification product for β actin should be 540 base pairs in length, and that of IL-10, 256 base pairs. Products were analyzed via 1.5% agarose gel electrophoresis, and visualized by ethidium bromide staining."}, "[9]": {"test_system": "P. aeruginosa (serotype 10)", "assay": "live sepsis model, survival after lethal P. aeruginosa challenge", "type": "in vivo, mice", "experimental": "This model was used in these experiments. To elaborate, hybrid mice (BALB/c Cr×DBA/2Cr) F1 (CD2 F1) of both sexes, ranging in age from 2-4 months were used. Mice were injected, intravenously, with 10^10 cells of P. aeruginosa (serotype 10), as described by, e.g., Campanile, et al, Cell. Immunol. 128:250 (1990); Campanile, et al, Cell. Immunol. 147:341 (1993); Campanile, et al, Eur. J. Pharmacol. 307:191 (1996). The microorganism was cultured in tryptic soy broth using standard conditions, and incubated at 37° C. for 18-24 hours under constant aeration. After the overnight culturing, the microorganisms were centrifuged, forming a soft pellet which was then resuspended in phosphate buffered saline. The dose of microorganisms referred to supra was then administered. This inoculum size is known to be lethal in more than 90% of test animal populations.\nThe interleukins and PBS were all administered intraperitoneally. Pentoxifylline was also administered intraperitoneally.\nThe experiments described supra were repeated, using a variety of doses, and both prophylactic and post-challenge administration.\nTo test this, mice received pentoxifylline at a dose of 30 mg/kg of body weight 1 hour before challenge with bacteria. The animals received a dose of murine IL-9 (4 μg) three hours post infection."}},
  "data": [
    {"molecule": "CC(=O)CCCCn1c(=O)c2c(ncn2C)n(C)c1=O", "note": "[Pentoxifylline, reference compound]", "values": [
      {"measurement": "protection in experimental sepsis", "setting": "[1]; phosphodiesterase inhibitor, literature statement", "value": "confers protection"}
    ]},
    {"molecule": "IL-9: recombinant murine IL-9 produced in a baculovirus model in accordance with Druez, et al (protein, UniProt P15247 19-144, looked up) Interleukin-9: QRCSTTWGIRDTNYLIENLKDDPPSKCSCSGNVTSCLCLSVPTDDCTTPCYREGLLQLTNATQKSRLLPVFHRVKRIVEVLKNITCPSFSCEKPCNQTMAGNTLSFLKSLLGTFQKTEMQRQKSRP", "values": [
      {"measurement": "expression of the cytokines (TNF-α, IL-12 p40, IFN-γ) in serum", "setting": "[2]", "value": "drastic reduction in all three cytokines"},
      {"measurement": "outcome (survival) of LPS challenged mice", "setting": "[3]", "value": "death in the majority of the animals tested"},
      {"measurement": "drop in TNF-α levels", "setting": "TNF-α [4]", "value": 10, "unit": "fold"},
      {"measurement": "increase of IL-10 levels (serum)", "setting": "IL-10 [5]", "value": "striking"},
      {"measurement": "effect on IL-4 production (serum level)", "setting": "IL-4", "value": "did not appear to have any effect"},
      {"measurement": "increase of IL-10 levels (serum)", "setting": "IL-10 [6]", "value": "The same effect, albeit a lesser one"},
      {"measurement": "drop in TNF-α levels", "setting": "TNF-α [7]", "value": "better than a twofold drop"},
      {"measurement": "IL-10 specific transcripts in spleen", "setting": "IL-10 [8]", "value": "extensive expression"},
      {"measurement": "survival rate", "setting": "[9]; IL-9 i.p. prior to P. aeruginosa challenge, pooled independent experiments", "value": "about 80%"},
      {"measurement": "cure rate", "setting": "[9]; single 4 μg dose 24 hours before bacterial challenge, no second dose", "value": 50, "unit": "%"},
      {"measurement": "benefit (survival)", "setting": "[9]; single treatment of 4 μg near the time of infection, and as much as 3 hours post challenge", "value": "marginal benefit"}
    ]},
    {"molecule": "IL-4: IL-4 (3 μg/mouse), together with 30 μg of anti-IL-4 monoclonal antibodies; composition improving bioavailability of IL-4 (protein, UniProt P07750 21-140, looked up, complexed with anti-IL-4 antibody) Interleukin-4: HIHGCDKNHLREIIGILNEVTGEGTPCTEMDVPNVLTATKNTTESELVCRASKVLRIFYLKHGKTPCLKKNSSVLMELQRLFRAFRCLDSSISCTMNESKSTSLKDFLESLKSIMQMDYS", "values": [
      {"measurement": "protection against fatal sepsis", "setting": "[1]; IL-4 3 μg/mouse together with 30 μg anti-IL-4 monoclonal antibodies, i.p., before P. aeruginosa challenge", "value": 100, "unit": "%"}
    ]}
  ]
}
